Results as given in US20260250363A1 (AP BIOSCIENCES, published 2026).
Read-outs that look alike come from different tables or passages of the source.

Key:
[1] = target: T1, SARS-CoV-2 Spike Trimer, His Tag (BA.4/Omicron) (MALS verified) (AcroBiosystems, SPN-C5229) (SARS-CoV-2, UniProt P0DTC2 16-1213); assay: competition ELISA: blocks biotin-ACE2 binding to coated spike
[2] = target: T2, SARS-CoV-2 Spike Trimer, His Tag (BA.5/Omicron) (MALS verified) (AcroBiosystems, SPN-C522e) (SARS-CoV-2, UniProt P0DTC2 16-1213); assay: as above
[3] = target: T3, Recombinant SARS-CoV-2 BA.2 Spike (GCN4-IZ) His Protein, CF (R&D, 11109-CV) (SARS-CoV-2, UniProt P0DTC2 16-1211); assay: as above
[4] = target: T4, SARS-CoV-2 B.1.1.529 Spike Protein (Omicron) (SARS-CoV-2, UniProt P0DTC2 16-1211); assay: as above
[5] = target: SARS-CoV-2 AY.1 Spike Protein (R&D, Cat. #10922-CV) (SARS-CoV-2, UniProt P0DTC2 16-1211)
[6] = target: SARS-CoV-2 C.37 Spike His Protein (R&D, Cat. #10887-CV) (SARS-CoV-2, UniProt P0DTC2 16-1211); assay: direct ELISA on coated spike; no plateau within the range shown
[7] = target: SARS-CoV-2 Spike Protein, wild type (R&D, Cat. #10549-CV) (SARS-CoV-2, UniProt P0DTC2 16-1211); assay: as above
[8] = target: T3, Recombinant SARS-CoV-2 BA.2 Spike …; assay: BLI (ForteBio), mAb on AHC sensor, spike in solution
[9] = target: T2, SARS-CoV-2 Spike Trimer, His Tag …; assay: as above
[10] = target: T4, SARS-CoV-2 B.1.1.529 Spike Protein …; assay: as above
[11] = target: T1, SARS-CoV-2 Spike Trimer, His Tag …; assay: as above
[12] = target: SARS-CoV-2 C.37 Spike His Protein (R&D, Cat. #10887-CV) (SARS-CoV-2, UniProt P0DTC2 16-1211); assay: competition ELISA: blocks biotin-ACE2 binding to coated spike
[13] = target: SARS-CoV-2 Spike Protein, wild type (R&D, Cat. #10549-CV) (SARS-CoV-2, UniProt P0DTC2 16-1211); assay: as above
[14] = target: T4, SARS-CoV-2 B.1.1.529 Spike Protein …; assay: as above; remark: listed apart in the source
[15] = target: SARS-CoV-2 AY.1 Spike Protein (R&D, Cat. #10922-CV) (SARS-CoV-2, UniProt P0DTC2 16-1211); assay: as above
[16] = target: SARS-CoV-2 B.1.617.2 Spike Protein (R&D, Cat. #10878-CV) (SARS-CoV-2, UniProt P0DTC2 16-1211); assay: as above

B1: Anti-SARS-CoV-2 #R3-1a-1-# R4-1a-10 scFv bsAb (bispecific antibody)
heavy: not shown
light: NFMLTQPHSVSESPGKTVTISCTRSSGSIASKYVQWYQQRPGNSPTTVIYEDDQRPSGVPDRFSASIDSSANTASLTISGLKPEDEADYYCQSYDDNTAVFGGGTHLTVLGQPKAAPSVTLFPPSSEELQANKATLVCLVSDFYPGAVTVAWKADGSPVKVGVETTKPSKQSNNKYAASSYLSLTPEQWKSHRSYSCRVTHEGSTVEKTVAPAECS
Q: B1 was tested. Which IC50 [1] did it give?
A: Its IC50 is 3.51 nM.

Q: What about the IC50 [2] of the same binder?
A: Its IC50 is 4.97 nM.

Q: And the IC50 [3]?
A: The IC50 was 0.803 nM.

Q: What about the IC50 [4] of the same binder?
A: The IC50 was 1.83 nM.

B2: R3-1a-1/R4-1a-51 scFv (bispecific antibody)
heavy chain with C-terminal scFv: not shown
light chain: B1 light
Q: Which IC50 [1] does the source give for B2 here?
A: The IC50 was 7.74 nM.

Q: What about the IC50 [2] of the same binder?
A: Its IC50 is 11.1 nM.

Q: And the IC50 [3]?
A: The IC50 was 3.31 nM.

Q: And the IC50 [4]?
A: Its IC50 is 5.85 nM.

B3: R4-7 (antibody, V domains shown)
VH: QVQLQESGGGLVQPGGSLRLSCAVSGMTLDYYAIAWFRQAPGKEREGVSRISSSDGSTSYADSVKGRFTISRDNAKNTVYLQMNSLKPEDTGVYYCAASPLTYYSGTYYFPGEYDYWGQGTQVTVSS
Q: B3 was tested. Which EC50 [5] did it give?
A: Its EC50 is 252000 nM.

Q: What about the EC50 [6] of the same binder?
A: The EC50 was 13.3 nM.

Q: What about the EC50 [7] of the same binder?
A: The EC50 was 20.4 nM.

B4: anti-SARS-CoV-2 antibody clone R4-21 (antibody, V domains shown)
VH: QVQLVQSGAEVKKPGESLKISCKGSGYSFTSYWIGWVRQMPGKGLEWMGIIYPGDSDTRYSPSFQGQVTISADKSISTAYLQWSSLKASDTAMYYCATQTPYYDSSDYYLGDAFDIWGQGTMVTVSS
VL: QSALTQPASVSGSPGQSITISCTGTSSDVGGYNYVSWYQQHPGKAPKLIIYDVRNRPSGVSNRFSGSKSGNTASLTISGLQAEDEADYYCGSYTSSSTLGFGGGTKLTVLG
Q: For B4, which Kd [8] is on record?
A: Its Kd is 2.32 nM.

Q: And the Kd [9]?
A: The Kd was 2.63 nM.

Q: What about the Kd [10] of the same binder?
A: Its Kd is 2.58 nM.

Q: And the Kd [11]?
A: Its Kd is 1.62 nM.

B5: Anti-SARS-CoV-2 #R4-1a-10-#R4-11 scFv bsAb (bispecific antibody)
heavy: not shown
light: QSVLTQPSSVSAAPWQRVTISCSGSDSNIGNNPVNWYQHVPGKAPTLLIYYDNFLASKISDRFSGSKSGTSASLAISGLQSDDEADYYCASWDDSLNGVVFGGGTKLTVLRQPKAAPSVTLFPPSSEELQANKATLVCLISDFYPGAVTVAWKADSSPVKAGVETTTPSKQSNNKYAASSYLSLTPEQWKSHRSYSCQVTHEGSTVEKTVAPTECS
Q: How did the IC50 [12] turn out when B5 was run?
A: The IC50 was 0.897 nM.

Q: And the IC50 [13]?
A: Its IC50 is 0.857 nM.

Q: And the IC50 [14]?
A: Its IC50 is 1.06 nM.

Q: What about the IC50 [15] of the same binder?
A: Its IC50 is 0.349 nM.

Q: What about the IC50 [16] of the same binder?
A: The IC50 was 0.563 nM.

B6: Anti-SARS-CoV-2 #R4-21-# R4-1a-10 scFv bsAb (bispecific antibody)
heavy: not shown
light: QSALTQPASVSGSPGQSITISCTGTSSDVGGYNYVSWYQQHPGKAPKLIIYDVRNRPSGVSNRFSGSKSGNTASLTISGLQAEDEADYYCGSYTSSSTLGFGGGTKLTVLGQPKAAPSVTLFPPSSEELQANKATLVCLISDFYPGAVTVAWKADSSPVKAGVETTTPSKQSNNKYAASSYLSLTPEQWKSHKSYSCQVTHEGSTVEKTVAPTECS
Q: With B6 as the binder, how does the IC50 [1] read?
A: Its IC50 is 1.04 nM.

Q: And the IC50 [2]?
A: The IC50 was 1.37 nM.

Q: What about the IC50 [3] of the same binder?
A: Its IC50 is 0.246 nM.

Q: What about the IC50 [4] of the same binder?
A: The IC50 was 1.08 nM.

B7: Anti-SARS-CoV-2 #R4-21-# R4-1a-51 scFv bsAb (bispecific antibody)
heavy: not shown
light: B6 light
Q: Which IC50 [1] does the source give for B7 here?
A: The IC50 was 1.14 nM.

Q: And the IC50 [2]?
A: The IC50 was 1.65 nM.

Q: And the IC50 [3]?
A: The IC50 was 0.354 nM.

Q: And the IC50 [4]?
A: The IC50 was 1.01 nM.

B8: Anti-SARS-CoV-2 #R4-11#R4-1a-10 scFv bsAb (bispecific antibody)
heavy: not shown
light: QSVLTQPPSVSEAPGQRVTISCSGSSSNIANNAVNWYQQLPGQAPKLLIFYDDLLPSWVSDRFSGSKSGTSASLAISGLQSEDEADYYCAAWDDSLNGPVFGGGTKLTVLRQPVAAPSVTLFPPSSEELQANKATLVCLISDFYPGAVTVAWKADSSPVKAGVETTTPSKQSNNKYAASSYLSLTPEQWKSHKSYSCQVTHEGSTVEKTVAPAECS
Q: For B8, which IC50 [12] is on record?
A: Its IC50 is 1.97 nM.

Q: What about the IC50 [13] of the same binder?
A: The IC50 was 2.73 nM.

Q: And the IC50 [14]?
A: The IC50 was 2.32 nM.

Q: And the IC50 [15]?
A: Its IC50 is 0.715 nM.

Q: And the IC50 [16]?
A: The IC50 was 1.45 nM.
